± gives the standard deviation of the averaged measurements.
Tested on: ATP
Test: switch fluorescence ratio, 500 uM ATP over buffer (Cy3 cluster intensity, sum of 5 cycles each) (fold (ratio)); higher = stronger signal-on switching upon ATP binding; sequences stand for … in TCGTCGGCAGCGTCAGATGTGTATAAGAGACAGTTTTTTTTTTTTTTTTTTTTTTTTT…TC
Details: aptamer strand: ATP DNA aptamer (quencher-CACCTGGGGGAGTATTGCGGAGGAAGG + anchor), 100 nM annealed; ATP concentration: 500 uM
How it was run: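 The quencher-labelled ATP aptamer, at 100 nM, was annealed to Cy3-labelled switching-strand clusters on a modified Illumina MiSeq flow-cell. The clusters were imaged in selection buffer, then after 15 min with 500 uM ATP at 22 °C, and this buffer/ATP cycle ran five times with NaOH stripping and re-annealing between runs. Per-cluster fluorescence ratios, summed target-cycle over summed buffer-cycle Cy3 intensity, were averaged per switch-domain sequence. Clusters outside 100-1000 RFU were excluded.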
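Further: ATP exposure 15 min at 22 °C before imaging.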

Sequence	switch fluorescence ratio
GGATGAGCGA	1.18 ± 0.19
CGCTTGACTT	0.985 ± 0.028
CAATGAGTAT	1.011 ± 0.003
GACTGGGGTA	0.988 ± 0.011
GGGTAGTGTA	0.995 ± 0.012
GCGTTGTGAA	0.9835 ± 0.0057
TATGGAGGGT	1.01 ± 0.022
TTAATTATGA	0.991 ± 0.012
TTGCTTATGG	1.01 ± 0.015
TAGGGCGCGT	0.9947 ± 0.0094
GTGGTTGGCC	1.011 ± 0.0027
AGGGGTCCGT	0.969 ± 0.018
GGGGGGATGG	1.07 ± 0.23
GGTCTGCAGC	1.003 ± 0.0062
ATTGGTATAT	1.007 ± 0.0068
GAGGTTCGGT	1.019 ± 0.0037
CAAATGATGT	1.01 ± 0.027
GTGATCTTAT	0.9965 ± 0.0031
CAATGTTTGC	1.002 ± 0.0083
AGGGGCTATG	1.01 ± 0.032
CGTGATAAAG	0.9911 ± 0.0089
TGGTGGAGGG	1 ± 0.032
TTTTGGCCAA	1.01 ± 0.041

Sequence	switch fluorescence ratio
GTGTTTATCG	0.966 ± 0.016
CGGGTGGGAG	0.991 ± 0.038
GGATGCTGGG	1 ± 0.015
GCGCCCAGTT	1.003 ± 0.0029
GCGACGGGGA	1.08 ± 0.021
AAGGTGTCGA	0.967 ± 0.019
TCTTTGGGCT	1.1 ± 0.19
GGAAACTTTT	1.07 ± 0.098
CAAATAGGGG	0.971 ± 0.024
GTGGGGGTGG	0.985 ± 0.015
TTTCATTGGC	0.986 ± 0.028
TGGTGCTGTT	0.985 ± 0.03
ACATGTAGCG	0.99 ± 0.021
ATCTCTGTAA	1.264 ± 0.0068
ATTGATGAGG	0.972 ± 0.012
TACGCGTAAT	1.012 ± 0.0052
TTATTGACGT	1.003 ± 0.0024
AGTGCGGAAG	1.04 ± 0.066
ACTCAGTGTC	1.05 ± 0.023
TAAATTTTCT	1.06 ± 0.015
AGGTTGTATC	1.01 ± 0.028
GCTAGCTAAG	1.034 ± 0.0011
TTTTTATCCA	0.976 ± 0.026

Sequence	switch fluorescence ratio
TGGGTATAGA	1.01 ± 0.032
TGAGCAGTTG	1.06 ± 0.12
AGAGTGACGA	1.008 ± 0.0061
AATCGTTGCT	0.952 ± 0.039
CGTAGTTCTT	1.01 ± 0.03
GAGGAATGGC	0.9828 ± 0.0022
GGCGAGGGGC	1.01 ± 0.036
AGGTGTTCTA	1.02 ± 0.021
TATGAGGAGT	0.982 ± 0.015
GCTTTACCAG	0.989 ± 0.013
TTTGGAGCTT	4.01 ± 2.7
AAGGAGGCTT	1.05 ± 0.066
CGGGCAGGTA	1.044 ± 0.0039
CGACGATCGT	0.971 ± 0.028
GGGGGGCAGC	1 ± 0.017
CTGGGAAGGG	0.9281 ± 0.0061
CGGTTGATGC	0.997 ± 0.059
CTCGGGGTCG	0.994 ± 0.047
GAACAGGGGA	1.53 ± 0.68
GGGAATTCGA	1 ± 0.036
CAAATGGGCT	0.975 ± 0.044
TTTTGAGGTG	1.06 ± 0.028
TAGCCCTTTT	0.973 ± 0.01

Sequence	switch fluorescence ratio
CAGAATTGTG	1.02 ± 0.012
GAAATGGCAA	1.03 ± 0.051
TAGAAGGGCC	0.976 ± 0.02
AAGTTACAGT	1.04 ± 0.036
TCAAGGATGT	1 ± 0.032
TATGGAGTTG	0.992 ± 0.032
CGTTTGGAGG	1.03 ± 0.016
GCCGGCCGGA	1.02 ± 0.02
TCTTAGGACG	0.997 ± 0.036
GCGTCAGGTG	3.82 ± 0.21
GGGTTGGGG	0.995 ± 0.048
ACGTTGCGTT	1.02 ± 0.025
GCAGGAGTGG	0.9929 ± 0.0088
CAAGTTTACC	1.037 ± 0.0023
ATAGGGGGGG	1.03 ± 0.025
GAATGTTTGG	0.991 ± 0.011
TTTTGGGCAA	1.31 ± 0.21
GACGCCGGTC	1.25 ± 0.27
CGATCGGTAC	3.3 ± 0.38
GTGTCGC	0.991 ± 0.047
GGTCGGGGGA	0.99 ± 0.061
CGTTTTGGTG	0.9914 ± 0.0052
ATTTCTTGGT	0.9751 ± 0.0083

Sequence	switch fluorescence ratio
GAGTTCAGTA	0.975 ± 0.034
TCCGATGGGT	1.145 ± 0.0095
ACATTTATCT	1.02 ± 0.02
CGTTGGTACG	1 ± 0.022
AGAAGTCGTG	1.02 ± 0.012
TGTCCTTAAA	0.9898 ± 0.0039
TCCGAGGGAT	2.25 ± 1.3
TTCTCTGTAA	2.66 ± 1.6
AATGTGAGCT	1.04 ± 0.043
AGGGGTAGGT	0.982 ± 0.019
GAGTTGTTGT	0.996 ± 0.018
ATACTTCATT	1.03 ± 0.032
GGGGTACTAC	1.003 ± 0.0053
GGTTTGCGCT	1.004 ± 0.0076
TTTCAGTGTT	1.05 ± 0.099
TATATTGAGG	0.991 ± 0.042
TTTTTGCAGT	1.02 ± 0.082
TTTACTAGGT	0.959 ± 0.026
CCTGTGATTC	1.23 ± 0.058
GCGGGCCTTG	0.984 ± 0.068
TTTTTGGTCC	0.992 ± 0.011
CCATCGTATG	0.971 ± 0.015
GATAATTGG	0.988 ± 0.02

Sequence	switch fluorescence ratio
ACCCGTACAT	1.11 ± 0.022
TAGTGGAAAC	0.9885 ± 0.0015
TTCAATATGT	0.991 ± 0.049
TTGGTTGTGG	0.972 ± 0.018
TTTCTCGAAT	1 ± 0.029
ATTTTTGAGT	1.02 ± 0.025
CCTAAGTGGG	1.02 ± 0.034
GGGGTGGGCG	1.01 ± 0.058
CGGGTATTCT	0.974 ± 0.046
TAAAACCAGG	1.21 ± 0.082
GATAGGATTG	0.987 ± 0.022
CGTGTTCGCT	0.9921 ± 0.0016
TTTTTATTGA	1 ± 0.034
TTAGTTTTTC	1.01 ± 0.032
TTGCATTAAG	0.9963 ± 0.0082
TGCTCTGGGG	0.996 ± 0.015
GAGTTACGGG	1.01 ± 0.072
CGGGTGTGCG	0.955 ± 0.088
TTATGTCAGG	1.04 ± 0.015
TGAATGATTG	0.995 ± 0.013
GCGTTTGGGT	0.9955 ± 0.0041
GACCGATGTG	1.01 ± 0.013
TACGGCTTTT	1.01 ± 0.0062

Sequence	switch fluorescence ratio
TTAACGGGAG	0.99 ± 0.019
TTAAGGTATT	1.07 ± 0.12
CCTTTTGTGG	1.015 ± 0.0068
TGCCGTAGGG	1.04 ± 0.041
CGGGGCGCTA	1.21 ± 0.29
TAGTATGAGG	0.976 ± 0.021
TGAAGAGGGG	0.994 ± 0.012
TTTGAATTCA	1.19 ± 0.22
AGGTGCAGCA	1.06 ± 0.15
GTTTGAATTT	0.989 ± 0.027
GGAATGGGGT	0.997 ± 0.024
AACTTTAGTC	0.994 ± 0.04
TTTCGTGACT	1.02 ± 0.035
AAATACGTCT	1.09 ± 0.096
TTTTGAGCCA	0.983 ± 0.032
TTCGGTTTGG	0.9952 ± 0.0061
TCGAGATATG	0.978 ± 0.09
AAATTTGCGT	0.987 ± 0.02
CGGGTGCCGT	1.06 ± 0.15

From the supplement of paper PMC10126150
